Test results from patent US20240109971A1 (MONASH UNIVERSITY, published 2024).
Blank lines part the entries; values can stand above or below the binder they belong to.

Key:
human CCR6 [1] = target: T1, human CCR6 (human, UniProt P51684 1-374); assay: FACS binding assay on hCCR6 L1.2 cells, PE-conjugated anti-human Fc detection; 1-21/WT mutant
T1 construct: also called hCCR6; CD196
T1 sequence: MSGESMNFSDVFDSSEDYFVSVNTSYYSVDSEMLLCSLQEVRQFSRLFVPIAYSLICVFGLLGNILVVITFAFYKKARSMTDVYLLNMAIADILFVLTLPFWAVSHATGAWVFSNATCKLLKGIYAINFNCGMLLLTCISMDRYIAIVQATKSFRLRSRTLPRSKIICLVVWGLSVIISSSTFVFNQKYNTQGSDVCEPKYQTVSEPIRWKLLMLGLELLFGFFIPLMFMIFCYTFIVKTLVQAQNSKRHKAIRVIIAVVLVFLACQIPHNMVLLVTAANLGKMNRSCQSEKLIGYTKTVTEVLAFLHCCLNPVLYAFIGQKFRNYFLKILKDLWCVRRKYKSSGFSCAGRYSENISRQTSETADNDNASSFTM
Method: (§1) Binding characteristics of hAB6 and mutants hAB6-IgG1 to human CCR6 was performed using a FACS binding assay using cell line expressing human CCR6 (L1.2 human CCR6). Approximately 2.5 10⁵ hCCR6 L1.2 cells/test were washed with FACS binding buffer (FBB) (PBS, 0.5% BSA, 0.1% NaN3 (pH 7.4)), and stained with hAB6 or hAB6 mutants (4.4 μg/ml) and serial 3-fold dilutions of antibodies. After 1 h on ice, the cells were washed with FBB (pH 7.4) and with an anti-human Fc antibody PE-conjugated (Jackson ImmunoResearch). After 30 min on ice, the cells were washed 3 times with FBB (pH 7.4), and resuspended in 1% formaldehyde, and analyzed using a FACS LSR flow cytometer (BD Immunocytometry Systems). EC₅₀ values were calculated using GraphPad Prism.

human CCR6 [2] = target: T1, human CCR6; assay: FACS binding assay on hCCR6 L1.2 cells, PE-conjugated anti-human Fc detection; WT/3-3 mutant
Method: as §1

human CCR6 [3] = target: T1, human CCR6; assay: FACS binding assay on hCCR6 L1.2 cells, PE-conjugated anti-human Fc detection; 1-21/3-3 mutant
Method: as §1

human CCR6 [4] = target: T1, human CCR6; assay: FACS binding assay on hCCR6 L1.2 cells, PE-conjugated anti-human Fc detection; 1-23/WT mutant
Method: as §1

human CCR6 [5] = target: T1, human CCR6; assay: FACS binding assay on hCCR6 L1.2 cells, PE-conjugated anti-human Fc detection; 1-23/3-3 mutant
Method: as §1

human CCR6 [6] = target: T1, human CCR6; assay: FACS binding assay on hCCR6 L1.2 cells, PE-conjugated anti-human Fc detection; hAB6 (WT/WT)
Method: as §1

B1: hAB6 mutant 1-21/WT (antibody, V domains shown)
VH: EVQLVESGGGLVQPGGSLRLSCAASGFPFSDYYLYWVRQAPGKGLEWVAYITNGVGRTYYSDSVKGRFTISRDNAKNTLYLQMNSLRDEDTAVYYCTSPPLGGAWFGYWGQGTLVTVS
VL: DIVMTQSPLSLPVTPGEPASISCRSSQSIVHSNGNTYLEWYLQKPGQSPRLLIYKVSKRFSGVPDRFSGSGSGTDFTLKISRVEAEDVGVYYCFQGSHVPLTFGQGTKLEIKR
notes: IgG1 format
- EC50 (human CCR6 [1]): 460 pM

B2: hAB6 mutant WT/3-3 (antibody, V domains shown)
VH: EVQLVESGGGLVQPGGSLRLSCAASGFPFSDYYLYWVRQAPGKGLEWVAYITNGVGRTYYSDSVKGRFTISRDNAKNTLYLQMNSLRDEDTAVYYCTSPPLGGAWFAYWGQGTLVTVS
VL: DIVMTQSPLSLPVTPGEPASISCRSSRSIVHSNGNTYLEWYLQKPGQSPRLLIYKVSKRFSGVPDRFSGSGSGTDFTLKISRVEAEDVGVYYCFQGSHVPLTFGQGTKLEIKR
notes: IgG1 format
- EC50 (human CCR6 [2]): 3200 pM

B5: hAB6 mutant 1-23/3-3 (antibody, V domains shown)
VH: EVQLVESGGGLVQPGGSLRLSCVASGFPFSDYYLYWVRQAPGKGLEWVAYITNGVGRTYYSDSVKGRFTISRDNAKNTLYLQMNSLRDEDTAVYYCTSPPLGGAWFGYWGQGTLVTVS
VL: DIVMTQSPLSLPVTPGEPASISCRSSRSIVHSNGNTYLEWYLQKPGQSPRLLIYKVSKRFSGVPDRFSGSGSGTDFTLKISRVEAEDVGVYYCFQGSHVPLTFGQGTKLEIKR
notes: IgG1 format
- EC50 (human CCR6 [5]): 1200 pM

B6: humanized AB6 mAb (antibody, V domains shown)
VH: EVQLVESGGGLVQPGGSLRLSCAASGFPFSDYYLYWVRQAPGKGLEWVAYITNGVGRTYYSDSVKGRFTISRDNAKNTLYLQMNSLRDEDTAVYYCTSPPLGGAWFAYWGQGTLVTVS
VL: DIVMTQSPLSLPVTPGEPASISCRSSQSIVHSNGNTYLEWYLQKPGQSPRLLIYKVSKRFSGVPDRFSGSGSGTDFTLKISRVEAEDVGVYYCFQGSHVPLTFGQGTKLEIKR
notes: also called hAB6; hAB6-IgG1
- EC50 (human CCR6 [6]): 3400 pM

Results, then the binder that gave them:

- EC50 (human CCR6 [3]): 410 pM
B3: hAB6 mutant 1-21/3-3 (antibody, V domains shown)
VH: EVQLVESGGGLVQPGGSLRLSCAASGFPFSDYYLYWVRQAPGKGLEWVAYITNGVGRTYYSDSVKGRFTISRDNAKNTLYLQMNSLRDEDTAVYYCTSPPLGGAWFGYWGQGTLVTVS
VL: DIVMTQSPLSLPVTPGEPASISCRSSRSIVHSNGNTYLEWYLQKPGQSPRLLIYKVSKRFSGVPDRFSGSGSGTDFTLKISRVEAEDVGVYYCFQGSHVPLTFGQGTKLEIKR
notes: IgG1 format

- EC50 (human CCR6 [4]): 390 pM
B4: hAB6 mutant 1-23/WT (antibody, V domains shown)
VH: EVQLVESGGGLVQPGGSLRLSCVASGFPFSDYYLYWVRQAPGKGLEWVAYITNGVGRTYYSDSVKGRFTISRDNAKNTLYLQMNSLRDEDTAVYYCTSPPLGGAWFGYWGQGTLVTVS
VL: DIVMTQSPLSLPVTPGEPASISCRSSQSIVHSNGNTYLEWYLQKPGQSPRLLIYKVSKRFSGVPDRFSGSGSGTDFTLKISRVEAEDVGVYYCFQGSHVPLTFGQGTKLEIKR
notes: IgG1 format
